B1: GST-mTfR1 (GST-fused recombinant protein of the partial sequence 321-329 of mouse transferrin receptor 1) (other, not shown: a dimerising Fc or GST)
chain: TQFPPSQSS

Columns and labels:
Experiment in all cases: amylose resin pull-down, western blotting with anti-GST antibody
[1] = target: MBP-VP1 GH strand I (fused recombinant protein of VP1 GH strand I and MBP) (poliovirus)
[2] = target: MBP-VP1BC loop (fused recombinant protein of VP1BC loop and MBP) (poliovirus)
[3] = target: B1

| Binder | binding result [1] | binding result [2] | binding result [3] |
| --- | --- | --- | --- |
| B1 | binds | binds |  |
| STKDLTTY (other) [MBP-VP1C terminal region (fused recombinant protein of VP1C terminal region and MBP)] |  |  | binds |
| SKVPLKDQSAALGDSLYGAASLNDFGILAVRVV (other) [MBP-VP1 GH strand II (fused recombinant protein of VP1 GH strand II and MBP)] |  |  | binds |
| ALGDSLYGAASLN (other) [MBP-VP1 GH loop (fused recombinant protein of VP1 GH loop and MBP)] |  |  | binds |
